Measured values: patent US20050182242A1, “Global analysis of protein activities using proteome chips” (priority 2001, published 2005)

Columns and labels:
total yeast genomic DNA = assay: Yeast proteome chip probed with labeled genomic DNA; type: binding; conditions: Cy3-labeled genomic DNA, visual inspection
Source text: Protein-DNA and protein-RNA interactions are important for many fundamental biological functions such as transcription regulation, chromosome segregation and maintenance, and RNA transport and processing (Williamson, 2000, Nat. Struct. Biol. 7(10):834-7). To explore the possibility of using a proteome chip to identify proteins that bind to DNA or RNA molecules, total yeast genomic DNA was labeled using Cy3-CTP and Klenow fragment, and polyA^+ was labeled using a biotinylated psoralen-derivative (31). Each probe was incubated with a different proteome chip (FIG. 3A).
The protein-nucleic acid interaction was assayed as follows. The nucleic acid robes were labeled as described by Winzeler et al. (1999, Science 285:901). Blocked proteome chips were washed three to five times in PBS buffer, and the extra liquid on the glass surface was removed by tapping the slides vertically on a KIMWIPE™. 200 μl of labeled nuclei acid probe ([…] poly(dC/dG); 100-300 mM NaCl; 50-300 mM HEPES, pH 7.0-8.5; 10 mM MgCl2) was added to the proteome chip and immediately covered by a hydrophobic plastic cover slip (GRACE BIO-LABS™, USA). After trapped air bubbles were removed, the chip was incubated in a humidity chamber in the dark at room temperature (“RT”) for one hour. To remove the cover slip, the chip was immersed into large volume of PBS buffer(>50 ml), so that the slip would float away. The chip was then moved to a second PBS bath (>50 ml) and washed 3×5 min with shaking in the dark at RT. To completely remove the liquid on the chip, the chip was spun to dryness at 1500-2000 rpm for 5-10 min at RT.

[1] = tested on: phosphatidylcholine (PC) liposomes; assay: Yeast proteome chip probed with PC liposomes; conditions: liposome binding signal on yeast proteome chip, Cy3-streptavidin detection
Outline: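 Sonicated liposomes in TBS, of phosphatidylcholine with 1% (w/w) biotin-DHPE plus 5% (w/w) of the named phosphoinositide (PC-only liposomes lacking it), were incubated on blocked chips of GST-RGS-His6-tagged yeast ORF proteins for 1 h at RT. Bound liposomes were detected with Cy3- or Cy5-streptavidin after PBS washes.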

PI(3,4)P2 liposomes = assay: Yeast proteome chip probed with PI(3,4)P2 liposomes; conditions: liposome binding signal on yeast proteome chip, Cy3-streptavidin detection
PI(4,5)P2 liposomes = assay: Yeast proteome chip probed with PI(4,5)P2 liposomes; conditions: liposome binding signal on yeast proteome chip, Cy3-streptavidin detection
PI(4)P liposomes = assay: Yeast proteome chip probed with PI(4)P liposomes; conditions: liposome binding signal on yeast proteome chip, Cy3-streptavidin detection
PI(3,4,5)P3 liposomes = assay: Yeast proteome chip probed with PI(3,4,5)P3 liposomes; conditions: liposome binding signal on yeast proteome chip, Cy3-streptavidin detection
[2] = tested on: phospholipids (phosphatidylinositols vs phosphatidylcholine); assay: Proteome chip lipid-binding screen, overall analysis of six liposomes (PI/PC specificity); conditions: compared with phosphatidylcholine
Source text: FIGS. 4A-4D. Analysis of the phosphatidylinositol-binding proteins. To determine the phosphatidylinositol (“PI”)-binding specificity of 150 positive proteins, their binding signals were normalized against the corresponding binding signals of phosphatidylcholine (“PC”). Based on the ratios (“PI/PC”), the proteins were grouped into four categories: (A) 30 strong and specific, (B) 43 strong and nonspecific, (C) 19 weak and specific, and (D) 58 weak and nonspecific phosphatidylinositol-binding proteins. The intensity represents the PI/PC signal ratio as shown by the scale in the figure. The column, labeled “10^n” to the right of the PI/PC binding ratios indicates the maximum binding signal intensity (open boxes) and its confidence interval (solid horizontal lines); the numbers indicate the log of the values. Boxes in the three columns to the right of the confidence interval column indicate membrane-associated proteins (“Membrane”), kinases (“Kinase”), and uncharacterized ORFs (“Unknown”), respectively.
To identify PI-binding proteins in yeast, liposomes were used as probes because the liposome provides the most relevant physiological condition to assay the interactors. Six types of liposomes were used. Each contains phosphatidylcholine (“PC”) with 1% (w/w) N-(biotinoyl)-1,2-dihexadecanoyl-sn-glycero-3-phosphoethanolamine, triethylammonium salt (biotin DHPE). The biotinylated lipid serves as a label that can be detected by Cy3-streptavidin (21). In addition to PC, the five other liposomes contain either 5% (w/w) PI(3)P, PI(4)P, PI(3,4)P2, PI(4,5)P2, or PI(3,4,5)P3 (FIG. 3A).
The protein-liposome interaction was assayed as follows. Appropriate amounts of each lipid in chloroform were mixed and dried under nitrogen. The lipid mixture was resuspended in TBS buffer by vortexing. The liposomes were created by sonication. Blocked proteome chips were washed three to five times in PBS buffer, and the extra liquid on the glass surface was removed by tapping the slides vertically on a KIMWIPE™. 200 μl of liposome solution was added to the proteome chip and immediately covered by a hydrophobic plastic cover slip (GRACE BIO-LAB™, USA). After trapped air bubbles were removed, the chip was incubated in a humidity chamber at RT for one hour. To remove the cover slip, the chip was immersed into large volume of PBS buffer (50 ml), so that the slip would float away. The chip was then moved to a second PBS bath (>50 ml) and washed 3×5 min with shaking at RT. After removing extra liquid on the surface of the chip, about 100 μl of Cy3 or Cy5 conjugated streptavidin (PIERCE™, USA; 1:2000 to 1:4000 dilution) was added to the surface and covered by a hydrophobic plastic cover slip (GRACE BIO-LABS™, USA). The chip was incubated for greater than 30 min in the dark at RT. The chip was then washed as described above. To completely remove the liquid on the chip, the chip was spun to dryness at 1500-2000 rpm for 5-10 min at RT.
An algorithm was devised to assist in the identification of positive signals (42). Fifty-two (35%) of the interactors (i.e., lipid-binding proteins) correspond to uncharacterized proteins thus ascribing the first biochemical activities to those proteins.
The interactors (i.e., phospholipid-binding proteins) were grouped in several ways (42). First, the interactors were sorted according to whether they bound lipids strongly or weakly, based on the phospholipid-binding signal relative to the amount of GST (FIG. 4). Slightly more (72%) of the strong lipid binding proteins (FIGS. 4A and 4B) were characterized relative to the weakly binding proteins (54%) (FIGS. 4C and 4D). Many of the strong lipid-binding proteins are membrane-associated, or are predicted to be associated with membranes, whereas fewer of the weaker binding proteins appear to be associated with membranes (FIG. 4, “Membrane” column). […] Moreover, thirteen of the seventeen protein kinases bind very strongly to the phospholipids. […]

PI(3)P liposomes = assay: Yeast proteome chip probed with PI(3)P liposomes; conditions: liposome binding signal on yeast proteome chip, Cy3-streptavidin detection

Row | Molecule | binding of genomic DNA probe (total yeast genomic DNA) | PC [1] | PI(3, 4)P2 (PI(3,4)P2 liposomes) | PI(4, 5)P2 (PI(4,5)P2 liposomes) | PI(4)P (PI(4)P liposomes) | PI(3, 4, 5)P3 (PI(3,4,5)P3 liposomes) | preferential binding of particular phosphatidylinositol lipids [2] | PI(3)P (PI(3)P liposomes)
1 | Ypt31p: yeast protein with GTP-binding activity (protein, UniProt P38555 2-223, looked up) GTP-binding protein YPT31/YPT8: SSEDYGYDYDLLFKIVLIGDSGVGKSNLLSRFTKNEFNMDSKSTIGVEFATRTLEIDGKRIKAQIWDTAGQERYRAITSAYYRGAVGALIVYDISKSSSYENCNHWLSELRENADDNVAVGLIGNKSDLAHLRAVPTEESKTFAQENQLLFTETSALNSENVDKAFEELINTIYQKVSKHQMDLGDSSANGNANGASAPNGPTISLTPTPNENKKANGNNCC | bind the DNA probe | – | – | – | – | – | – | –
2 | ATP1: yeast alpha subunit of F1-ATP synthase, GST-HisX6 fusion (protein, UniProt P07251 36-545, looked up, GST-His6 tag, yeast alpha subunit of F1-ATP synthase, GST-HisX6 fusion) ATP synthase subunit alpha, …: ASTKAQPTEVSSILEERIKGVSDEANLNETGRVLAVGDGIARVFGLNNIQAEELVEFSSGVKGMALNLEPGQVGIVLFGSDRLVKEGELVKRTGNIVDVPVGPGLLGRVVDALGNPIDGKGPIDAAGRSRAQVKAPGILPRRSVHEPVQTGLKAVDALVPIGRGQRELIIGDRQTGKTAVALDTILNQKRWNNGSDESKKLYCVYVAVGQKRSTVAQLVQTLEQHDAMKYSIIVAATASEAAPLQYLAPFTAASIGEWFRDNGKHALIVYDDLSKQAVAYRQLSLLLRRPPGREAYPGDVFYLHSRLLERAAKLSEKEGSGSLTALPVIETQGGDVSAYIPTNVISITDGQIFLEAELFYKGIRPAINVGLSVSRVGSAAQVKALKQVAGSLKLFLAQYREVAAFAQFGSDLDASTKQTLVRGERLTQLLKQNQYSPLATEEQVPLIYAGVNGHLDGIELSRIGEFESSFLSYLKSNHNELLTEIREKGELSKELLASLKSATESFVATF | – | 0.29 | 11.93 | 46.38 | 28.09 | 26.44 | preferentially binds PI(3,4)P2 | –
3 | THI13: yeast protein involved in nucleotide metabolism, GST-HisX6 fusion (protein, UniProt Q07748 1-340, looked up, GST-His6 tag, yeast protein involved in nucleotide metabolism, GST-HisX6 fusion) 4-amino-5-hydroxymethyl-2-meth …: MSTDKITFLLNWQPTPYHIPIFLAQTKGYFKEQGLDIAILEPTNPSDVTELIGSGKVDMGLKAMIHTLAAKARGFPVTSVASLLDEPFTGVLYLKGSGITEDFQSLKGKKIGYVGEFGKIQIDELTKHYGMKPEDYTAVRCGMNVAKYIIEGKIDAGIGIECMQQVELEEYLAKQGRPASDAKMLRIDKLACLGCCCFCTVLYICNDEFLKKNPEKVRKFLKAIKKATDYVLADPVKAWKEYIDFKPQLNNDLSYKQYQRCYAYFSSSLYNVHRDWKKVTGYGKRLAILPPDYVSNYTNEYLSWPEPEEVSDPLEAQRLMAIHQEKCRQEGTFKRLALPA | bind the DNA probe | 43.14 | 75.66 | 64.67 | 55.09 | 39.04 | – | 13.75
4 | SPS2: yeast sporulation protein of prospore membrane, GST-HisX6 fusion (protein, UniProt P08459 57-475, looked up, GST-His6 tag, yeast sporulation protein of prospore membrane, GST-HisX6 fusion) Sporulation-specific protein 2: AVEPNGGPNILDHNIMLVNTNATIPKKEQTDFEVISPTKQTQVDEDCKKGLYHIENAGNLIELQAKCWKVVGNIEISSNYSGSLIDLGLIREIEGDLIIKNNKHIFRIQGYNLESLGKLELDSLTSFVSLDFPALKEVETVDWRVLPILSSVVINGNIKKIKNIIISDTALTSIDYFNNVKKVDIFNINNNRFLENLFASLESVTKQLTVHSNAKELELDLSNLHTVENMTIKDVSEIKLAKLSSVNSSLEFIENQFSSLELPLLAKVQGTLGLIDNKNLKKLNFSNATDIQGGLMIANNTELAKIDFFPKLRQIGGAIYFEGSFDKIDLPELKLVKGSAYIKSSSEELNCEEFTSPKAGRSIIRGGKIECTSGMKSKMLNVDEEGNVLGKQETDNDNGKKEKGKNGAKSQGSSKKMEN | – | 44.61 | 54.63 | 64.02 | 47.47 | 25.31 | preferentially interacts with PI(3)P | 18.50
5 | STP22: yeast protein required for vacuolar targeting of plasma membrane proteins, GST-HisX6 fusion (protein, UniProt P25604 1-385, looked up, GST-His6 fusion tag) Suppressor protein STP22 of …: MSANGKISVPEAVVNWLFKVIQPIYNDGRTTFHDSLALLDNFHSLRPRTRVFTHSDGTPQLLLSIYGTISTGEDGSSPHSIPVIMWVPSMYPVKPPFISINLENFDMNTISSSLPIQEYIDSNGWIALPILHCWDPAAMNLIMVVQELMSLLHEPPQDQAPSLPPKPNTQLQQEQNTPPLPPKPKSPHLKPPLPPPPPPQPASNALDLMDMDNTDISPTNHHEMLQNLQTVVNELYREDVDYVADKILTRQTVMQESIARFHEIIAIDKNHLRAVEQAIEQTMHSLNAQIDVLTANRAKVQQFSSTSHVDDEDVNSIAVAKTDGLNQLYNLVAQDYALTDTIECLSRMLHRGTIPLDTFVKQGRELARQQFLVRWHIQRITSPLS | – | 2.93 | 8.79 | −8.27 | 10.89 | 22.05 | preferentially binds PI(4)P | 51.50
